Experimental data published in US20240301385, “DNA MODIFYING ENZYMES AND ACTIVE FRAGMENTS AND VARIANTS THEREOF AND METHODS OF USE” (LIFEEDIT THERAPEUTICS, INC., published 2024).

Assays:
APG30126-L32-nAPG07433.1 = target: T1, APG30126-L32-nAPG07433.1 (synthetic); experiment: cell_activity; HEK293FT; PAM SEQ 152; conditions: tags: SV40 NLS, 3xFLAG N-term; nucleoplasmin NLS C-term
T1 chain: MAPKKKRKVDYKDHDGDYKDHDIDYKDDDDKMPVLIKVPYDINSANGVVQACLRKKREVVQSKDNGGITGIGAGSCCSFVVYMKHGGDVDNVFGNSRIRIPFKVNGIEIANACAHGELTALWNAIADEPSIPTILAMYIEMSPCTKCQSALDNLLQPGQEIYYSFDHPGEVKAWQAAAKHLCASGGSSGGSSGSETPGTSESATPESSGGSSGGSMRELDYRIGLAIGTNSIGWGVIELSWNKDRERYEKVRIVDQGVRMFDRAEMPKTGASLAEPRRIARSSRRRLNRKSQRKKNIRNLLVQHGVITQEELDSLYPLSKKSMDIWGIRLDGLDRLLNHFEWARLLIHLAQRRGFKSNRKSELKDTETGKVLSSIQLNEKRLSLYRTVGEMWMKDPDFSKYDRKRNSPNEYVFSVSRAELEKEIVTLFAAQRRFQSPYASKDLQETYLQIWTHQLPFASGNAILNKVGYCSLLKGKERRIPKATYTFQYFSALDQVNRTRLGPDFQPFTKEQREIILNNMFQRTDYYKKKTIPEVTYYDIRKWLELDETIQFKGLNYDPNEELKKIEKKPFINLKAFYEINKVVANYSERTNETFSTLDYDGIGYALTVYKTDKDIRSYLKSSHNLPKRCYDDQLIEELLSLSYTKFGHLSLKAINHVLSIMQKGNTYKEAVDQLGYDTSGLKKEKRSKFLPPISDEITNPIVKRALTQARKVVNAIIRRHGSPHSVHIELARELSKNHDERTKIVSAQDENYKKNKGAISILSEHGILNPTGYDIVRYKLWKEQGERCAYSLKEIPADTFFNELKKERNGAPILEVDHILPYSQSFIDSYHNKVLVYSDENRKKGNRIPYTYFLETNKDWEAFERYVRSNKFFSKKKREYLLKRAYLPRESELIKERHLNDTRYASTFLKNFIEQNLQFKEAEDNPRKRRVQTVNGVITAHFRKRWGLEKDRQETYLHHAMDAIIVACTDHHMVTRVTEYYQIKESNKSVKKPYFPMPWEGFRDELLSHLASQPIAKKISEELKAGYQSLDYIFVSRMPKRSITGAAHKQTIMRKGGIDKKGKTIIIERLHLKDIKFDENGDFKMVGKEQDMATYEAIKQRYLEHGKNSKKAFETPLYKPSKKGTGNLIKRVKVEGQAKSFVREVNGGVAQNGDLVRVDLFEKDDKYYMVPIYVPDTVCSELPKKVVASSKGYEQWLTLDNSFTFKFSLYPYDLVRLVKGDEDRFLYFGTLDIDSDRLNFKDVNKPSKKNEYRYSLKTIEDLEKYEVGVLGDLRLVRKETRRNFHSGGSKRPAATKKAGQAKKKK
How it was run: (§1)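 Editing read out by next-generation sequencing (MiSeq 2×250) of PCR amplicons spanning the target site, analysed for INDELs or % cytosine conversion per position (position 1 nearest PAM).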

APG30127-L32-nAPG07433.1 = target: T2, APG30127-L32-nAPG07433.1 (synthetic); experiment: cell_activity; HEK293FT; PAM SEQ 152; conditions: tags: SV40 NLS, 3xFLAG N-term; nucleoplasmin NLS C-term
T2 chain: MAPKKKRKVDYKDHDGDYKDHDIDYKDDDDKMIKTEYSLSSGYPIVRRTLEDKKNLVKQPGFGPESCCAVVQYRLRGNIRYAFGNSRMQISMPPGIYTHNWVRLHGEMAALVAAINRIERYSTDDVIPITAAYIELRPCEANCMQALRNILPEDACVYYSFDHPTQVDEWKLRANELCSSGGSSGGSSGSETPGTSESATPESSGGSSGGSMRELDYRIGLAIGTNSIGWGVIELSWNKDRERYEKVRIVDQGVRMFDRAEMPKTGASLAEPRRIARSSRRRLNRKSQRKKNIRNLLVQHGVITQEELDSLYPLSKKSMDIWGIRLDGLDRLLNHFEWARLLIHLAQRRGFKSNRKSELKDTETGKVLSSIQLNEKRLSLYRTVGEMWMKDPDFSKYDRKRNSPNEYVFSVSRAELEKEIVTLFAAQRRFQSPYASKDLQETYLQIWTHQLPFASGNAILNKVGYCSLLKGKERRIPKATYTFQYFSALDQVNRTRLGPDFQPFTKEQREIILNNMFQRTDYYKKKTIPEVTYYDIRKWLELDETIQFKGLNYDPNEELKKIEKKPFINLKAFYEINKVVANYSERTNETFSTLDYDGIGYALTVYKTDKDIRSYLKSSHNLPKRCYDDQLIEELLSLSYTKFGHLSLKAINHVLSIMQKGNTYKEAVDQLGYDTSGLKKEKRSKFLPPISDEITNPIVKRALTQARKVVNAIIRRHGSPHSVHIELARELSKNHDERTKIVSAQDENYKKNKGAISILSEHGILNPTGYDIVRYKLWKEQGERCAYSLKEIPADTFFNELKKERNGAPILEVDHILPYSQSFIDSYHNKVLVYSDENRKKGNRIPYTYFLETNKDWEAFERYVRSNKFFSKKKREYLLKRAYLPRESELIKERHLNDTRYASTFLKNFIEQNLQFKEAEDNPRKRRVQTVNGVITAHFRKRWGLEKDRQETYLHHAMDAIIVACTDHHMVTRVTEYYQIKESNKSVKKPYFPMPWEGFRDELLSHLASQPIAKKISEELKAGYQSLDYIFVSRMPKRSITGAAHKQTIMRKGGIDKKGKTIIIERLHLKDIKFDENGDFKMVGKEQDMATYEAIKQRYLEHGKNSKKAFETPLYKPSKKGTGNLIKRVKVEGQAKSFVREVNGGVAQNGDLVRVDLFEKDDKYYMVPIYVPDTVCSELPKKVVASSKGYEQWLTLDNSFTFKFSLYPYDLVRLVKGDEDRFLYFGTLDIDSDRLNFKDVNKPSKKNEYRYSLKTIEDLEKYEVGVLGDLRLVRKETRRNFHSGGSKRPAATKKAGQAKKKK
How it was run: as §1

B1: SGN000930 sgRNA ; SGN000930 target (ssRNA ; dsDNA)
RNA: GAACAACUCAAAUGGAAAUGAAUAUGUCAUAGUUCCAUGAAAGCCAAAAGUGGCUUUGAUGUUUCUAUGAUAAGGGUUUCGGCCCGUGGCGUCGGGGAUCGCCUGCCCAUUCCGAUGGGCUUCUCCCCAUUUAUU
DNA 1: GAACAACTCAAATGGAAATGAATAT
DNA 2: ATATTCATTTCCATTTGAGTTGTTC
With B1 as the binder, how does the activity (APG30126-L32-nAPG07433.1) read?
Its activity is 1.38 % mutated reads.

B2: SGN000194 sgRNA ; SGN000194 target (ssRNA ; dsDNA)
RNA: GCCGCACAGCAUUCAGGUCGGUCAUAGUUCCAUUAAAGCCAAAAGUGGCUUUGAUGUUUCUAUGAUAAGGGUUUCGACCCGUGGCGUCGGGGAUCGCCUGCCCAUUGAAAUGGGCUUCUCCCCAUUUAUU
DNA 1: GCCGCACAGCATTCAGGTCG
DNA 2: CGACCTGAATGCTGTGCGGC
How did the activity (APG30127-L32-nAPG07433.1) turn out when B2 was run?
The activity was 9.53 % mutated reads.
